Assay results reported in publication PMC7210961.

Tests used:
[1] = biological target: human Nav1.7 (hNav1.7), wild type (human) (UniProt Q15858)
[2] = biological target: human Nav1.9 with C-terminal GFP (hNav1.9-GFP), wild type (human) (UniProt Q9UI33)
[3] = biological target: Nav1.8/1.7 DII s3b-s4 chimaera (reverse chimaera: DII s3b-s4 of Nav1.7 built into Nav1.8) (rat | human)
hNav1.7 E818R (human) = hNav1.7 E818R (human) (UniProt Q15858)

HpTx1 (spider peptide toxin; rational nomenclature κ-sparatoxin-Hv1a) (from UniProt P58425 1-33)
dose-dependent inhibition of hNav1.7 currents in HEK293T cells (whole-cell patch clamp), IC50 [1]: 510 nM
inhibition of the fast inactivation of hNav1.9 currents in ND7/23 cells, dose-response (whole-cell patch clamp), EC50 [2]: 470 nM
dose-dependent inhibition of the currents of the reverse chimaeric channel by HpTx1 (whole-cell patch clamp), IC50 [3]: 3000 nM
fold reduction in HpTx1 activity (IC50 of current inhibition) against WT hNav1.7 (whole-cell patch clamp) (hNav1.7 E818R (human)): 20 fold
